Positions count from the first letter of the chain named. Names and notes keep the numbering of the source.
B1: 1A6-graft (direct HVR-graft of 1A6), expressed as IgG (antibody, V domains shown)
VH: EVQLVESGGGLVQPGGSLRLSCAASGFSLTTYGVHWVRQAPGKGLEWVGVIWPGGGTDYNAAFISRFTISRDNSKNTLYLQMNSLRAEDTAVYYCVRKEYANLYAMDYWGQGTLVTVSS
VL: DIQMTQSPSSLSASVGDRVTITCKASQDINSFLSWYQQKPGKAPKLLIYRANRLVDGVPSRFSGSGSGTDFTLTISSLQPEDFATYYCLQYDEFPLTFGQGTKVEIKR
notes: Tested as IgG produced in 293 cells; also called 1A6 grafted antibody; 1A6 HVR graft
B2: chimeric anti-FGF19 antibody 1A6 (antibody, V domains shown)
VH: QVQLKQSGPGLVQPSQSLSITCTVSGFSLTTYGVHWVRQSPGKGLEWLGVIWPGGGTDYNAAFISRLSITKDNSKSQVFFKMNSLLANDTAIYFCVRKEYANLYAMDYWGQGTLLTVSA
VL: DIKMTQSPSSMYASLGERVTIPCKASQDINSFLSWFQQKPGKSPKTLIYRANRLVDGVPSRFSGSGSGQDYSLTISSLEYEDMGIYYCLQYDEFPLTFGAGTKVEIKR
notes: also called chimeric 1A6; ch1A6
B3: hu1A6.V50L (HVR-H2) (antibody, name in Kabat numbering, V domains shown)
VH: B1 VH with V50L
VL: B1 VL
B4: hu1A6.S34T (HVR-L1) (antibody, V domains shown)
VH: B1 VH
VL: B1 VL with S34T
B5: hu1A6.A100bR (HVR-H3) (antibody, name in Kabat numbering, V domains shown)
VH: B1 VH with A105R
VL: B1 VL
B6: hu1A6.S34A (HVR-L1) (antibody, V domains shown)
VH: B1 VH
VL: B1 VL with S34A
B7: hu1A6.V34A (HVR-H1) (antibody, name in Kabat numbering, V domains shown)
VH: B1 VH with V34A
VL: B1 VL
B8: hu1A6.Q90S (HVR-L3) (antibody, V domains shown)
VH: B1 VH
VL: B1 VL with Q90S
B9: hu1A6.A100bP/M100kS (HVR-H3) (antibody, name in Kabat numbering, V domains shown)
VH: B1 VH with A105P, M106S
VL: B1 VL
notes: also called A100bP/M100cS
B10: hu1A6.H35Q (HVR-H1) (antibody, name in Kabat numbering, V domains shown)
VH: B1 VH with H35Q
VL: B1 VL
B11: hu1A6.S34A/D56S (HVR-L1/L2) (antibody, V domains shown)
VH: B1 VH
VL: B1 VL with S34A, D56S
notes: Humanized 1A6 variant as IgG
B12: hu1A6.S34G/D56S (HVR-L1/L2) (antibody, V domains shown)
VH: B1 VH
VL: B1 VL with S34G, D56S
notes: Humanized 1A6 variant as IgG

target: T1, Human FGF19 (human, UniProt O95750 25-216); experiment: SPR (Biacore), 1A6-graft as IgG, soluble human FGF19; reference chimeric 1A6
T1 construct: Recombinant soluble protein; also called huFGF19; Fibroblast growth factor 19
T1 sequence (O95750 25-216 limits assumed): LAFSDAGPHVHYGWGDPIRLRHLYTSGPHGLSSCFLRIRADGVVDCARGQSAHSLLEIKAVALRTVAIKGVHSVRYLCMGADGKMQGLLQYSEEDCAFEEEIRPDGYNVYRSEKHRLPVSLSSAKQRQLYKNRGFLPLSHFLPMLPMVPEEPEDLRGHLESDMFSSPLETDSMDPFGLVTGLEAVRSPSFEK

Binder	fold reduction of binding affinity relative to chimeric 1A6 [fold]
B1	> 50

target: T1, Human FGF19; experiment: SPR (BIAcore 2000), IgG on chip, soluble human FGF19

Binder	KD (fold weaker), against chimeric 1A6 [fold]	Ka (fold slower), against chimeric 1A6 [fold]	Kd (fold faster), against chimeric 1A6 [fold]
B2	1	1	1
B1	58.1	24.8	2.3
B3	5.7	6.3	0.9
B4	14	12	1.2
B5	2.3	2.6	0.9
B6	9.1	7.7	1.2
B7	10.5	12.5	0.9
B8	16	10.4	1.5
B9	0.9	1.7	0.5
B10	6.6	5	1.3

target: T1, Human FGF19; experiment: as above; remark: another data set of the same source

Binder	Kd [nM]	koff [s⁻¹]	kon [M⁻¹ s⁻¹]
B2	0.036	5.3e-05	1.47e+06
B1	2.09	0.000124	59300

target: T1, Human FGF19; experiment: as above; remark: another data set of the same source

Binder	Kd [nM]	koff [s⁻¹]	kon [M⁻¹ s⁻¹]
B2	0.032	5.4e-05	1.7e+06
B11	0.118	4.6e-05	390000
B12	0.114	1.6e-05	140000

target: T1, Human FGF19; experiment: Solid phase receptor binding assay: FGFR4-Fc captured on an anti-human Fc plate, FGF19 (0.25 µg/ml) incubated with titrated anti-FGF19 antibody, bound FGF19 detected with biotinylated polyclonal anti-FGF19 / streptavidin-HRP (OD 450 nm); blocked ligand-receptor pair FGF19/FGFR4
Protocol: (§1) Maxisorb 96 well plates were coated overnight at 4° C. with 50 μl of 2 μg/ml anti-human immunoglobulin Fcγ fragment specific (Jackson Immunoresearch) and used to capture 1 μg/ml FGFR-Fc chimeric proteins (R & D Systems). The non-specific binding sites were saturated with PBS/3% BSA for 1 hour and FGF19 (0.25 μg/ml) was incubated for 2 h in PBS/0.3% BSA in the presence of oligosaccharides (0.5 μg/ml; Neoparin Inc.) and the indicated anti-FGF19 antibody (0-10 μg/ml). FGF19 binding was detected using a biotinylated FGF19 specific polyclonal antibody (0.5 μg/ml; BAF969; R & D Systems) followed by streptavidin-HRP and TMB colorimetric substrate.
(§2) Humanized anti-FGF19 antibody 1A6.v1 was characterized as follows: [0531] (1) In an assay to test ability of 1A6.v1 to block binding of FGF19 to its receptor, FGFR4, 1A6.v1 was able to block FGF19 binding to its receptor at least as well as one comparator antibody—namely a chimeric antibody (which comprised the variable regions from the murine parent 1A6 antibody (variable domains depicted in FIG. 8) fused to a human Fc region). […] [0532] (2) 1A6.v1 was also tested for cross-species binding among human and primate (Cynomolgus macaque monkey). […] [0533] (3) 1A6.v1 was tested for in vitro efficacy using a colon tumor cell line (HCT116 cells). […] [0534] […]

Binder	IC50 [µg/mL]
B2	0.675

target: T2, Cynomolgus FGF19 (cynomolgus monkey); experiment: SPR (BIAcore 2000), IgG on chip, soluble cynomolgus FGF19
T2 construct: also called Cyno FGF19; cynoFGF19

Binder	Kd [nM]	koff [s⁻¹]	kon [M⁻¹ s⁻¹]
B2	0.087	6.6e-05	760000
B11	0.481	7.7e-05	160000
B12	0.906	4.8e-05	53000

target: T1, Human FGF19; experiment: solid phase receptor binding assay: antibody blocks FGF19 binding to plate-captured FGFR4-Fc
Protocol: as §1, §2

Binder	IC50 [nM]
B2	4.5

Reference: US20110076262A1 (Genentech, published 2011)
